Measured values taken from US20120225060A1.
Like-named read-outs stand apart in the source and are kept apart here.

Key:
[1] = target: recombinant human IL-6R-extracellular domain (ECD) (human) (UniProt P08887); test: SPR
[2] = target: IL-6R on human myeloma U266B1 cells (human) (UniProt P08887); test: FACS binding to IL-6R on U266B1 cells
[3] = target: IL-6R on human myeloma U266B1 cells (human) (UniProt P08887); test: FACS binding to IL-6R on U266B1 cells; remark: listed apart in the source
[4] = target: recombinant human IL-6R-extracellular domain (ECD) (human) (UniProt P08887); test: receptor-ligand ELISA, blocking of IL-6 binding to IL-6R
[5] = target: IL-6R on human myeloma U266B1 cells (human) (UniProt P08887); test: cell-based or functional assay
[6] = target: IL-6R on human myeloma U266B1 cells (human) (UniProt P08887); test: FACS on U266B1 cells
[7] = target: IL-6R on human myeloma U266B1 cells (human) (UniProt P08887); test: cell-based or functional assay; remark: listed apart in the source
[8] = target: recombinant human IL-6R-extracellular domain (ECD) (human) (UniProt P08887); test: direct ELISA on IL-6R
[9] = target: recombinant human IL-6R-extracellular domain (ECD) (human) (UniProt P08887); test: receptor-ligand ELISA, blocking of IL-6 binding to IL-6R; remark: listed apart in the source

recombinant human IL-6R-extracellular domain (ECD) (human), sequence (P08887 20-365): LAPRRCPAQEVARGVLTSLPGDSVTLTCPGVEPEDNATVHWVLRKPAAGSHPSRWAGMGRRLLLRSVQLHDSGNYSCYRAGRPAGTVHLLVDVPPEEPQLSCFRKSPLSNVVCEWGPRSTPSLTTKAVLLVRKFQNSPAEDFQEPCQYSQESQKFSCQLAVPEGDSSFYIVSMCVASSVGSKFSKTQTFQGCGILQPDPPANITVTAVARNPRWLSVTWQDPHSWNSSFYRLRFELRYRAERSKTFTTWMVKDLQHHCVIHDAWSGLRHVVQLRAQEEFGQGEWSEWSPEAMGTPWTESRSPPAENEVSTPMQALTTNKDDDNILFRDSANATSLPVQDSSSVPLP
IL-6R on human myeloma U266B1 cells (human), sequence (P08887 20-468): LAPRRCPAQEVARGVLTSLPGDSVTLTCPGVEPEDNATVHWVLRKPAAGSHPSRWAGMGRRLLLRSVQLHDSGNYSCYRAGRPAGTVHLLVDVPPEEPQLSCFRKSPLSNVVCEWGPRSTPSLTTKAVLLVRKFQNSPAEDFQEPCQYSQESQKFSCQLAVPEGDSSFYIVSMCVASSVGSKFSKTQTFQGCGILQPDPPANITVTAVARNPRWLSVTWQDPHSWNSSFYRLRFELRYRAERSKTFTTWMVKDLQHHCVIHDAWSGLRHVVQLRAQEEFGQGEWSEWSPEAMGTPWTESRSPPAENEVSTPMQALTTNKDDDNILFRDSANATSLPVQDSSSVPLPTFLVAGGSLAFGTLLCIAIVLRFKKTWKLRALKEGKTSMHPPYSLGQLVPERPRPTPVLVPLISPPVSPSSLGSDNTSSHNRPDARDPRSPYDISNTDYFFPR

B1: Tocilizumab (antibody, part only; not given: constant regions, V domains shown, not shown: another chain or arm of the molecule)
VH: QVQLQESGPGLVRPSQTLSLTCTVSGYSITSDHAWSWVRQPPGRGLEWIGYISYSGITTYNPSLKSRVTMLRDTSKNQFSLRLSSVTAADTAVYYCARSLARTTAMDYWGQGSLVTVSS
VL: DIQMTQSPSSLSASVGDRVTITCRASQDISSYLNWYQQKPGKAPKLLIYYTSRLHSGVPSRFSGSGSGTDFTFTISSLQPEDIATYYCQQGNTLPYTFGQGTKVEIK
Kd [1]: 3.85 nM
koff [1]: 0.00097 s⁻¹
kon [1]: 252000 M⁻¹ s⁻¹
EC50 [2]: 0.206 µg/mL
EC50 [3]: 0.602 µg/mL
IC50 [4]: 1.1 µg/mL
TF-1 proliferation IC50 [5]: 0.04 µg/mL
EC50 (read off the curve) [6]: 0.6 µg/mL
TF-1 proliferation IC50 [7]: 0.214 µg/mL
EC50 [8]: 0.0458 µg/mL
IC50 [9]: 0.56 µg/mL
